Results: publication PMC5910400

Biological target: CXCL8 (human)

B1: P1156 (evasin from Ixodes ricinus), purified, C-terminal StrepII:His tag (natural protein)
chain: DGGADDDNELFTVQYCGMNCTKDEGGTWTGCTGKKEGCKCYHESGKNYGLCLSTEYTDFSQYGNPSDSEIEAAKPKRSDTLSH
B1 showed a mean IC50 (three biological replicates) of inhibition of primary human granulocyte migration induced by the EC80 dose of CXCL8 of 1.8e-09 M.
